Values belong to the binder of their own block, whether it stands above or below them.
Target: T1, 人PSGL-1 (on THP-1 cells) (human) (UniProt Q14242)
T1 sequence (looked up): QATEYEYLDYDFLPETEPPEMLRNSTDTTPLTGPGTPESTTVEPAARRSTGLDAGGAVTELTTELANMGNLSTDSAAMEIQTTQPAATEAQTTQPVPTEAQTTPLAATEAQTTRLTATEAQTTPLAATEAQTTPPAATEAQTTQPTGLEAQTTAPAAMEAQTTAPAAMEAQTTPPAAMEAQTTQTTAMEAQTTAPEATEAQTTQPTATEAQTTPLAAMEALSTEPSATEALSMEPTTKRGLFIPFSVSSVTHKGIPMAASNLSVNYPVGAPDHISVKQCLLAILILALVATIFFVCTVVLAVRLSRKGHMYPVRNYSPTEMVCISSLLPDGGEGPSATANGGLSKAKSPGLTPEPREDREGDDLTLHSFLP
Assay: flow cytometry competition on THP-1 cells; competitor recombinant human P-selectin/CD62P Fc chimera; antibody 10 μg/mL

- fold decrease of CD62P+CD45+/总CD45+细胞 at 10μg/mL: 1.5 倍
B1: 抗体Rh001-22 (antibody, V domains shown)
VH: QVQLLESGPGLVKPSETLSLTCAVSGGSLTSHYWGWIRQPPGKGLEWVGSISGSSGNPEYNPSLKSRATISRDTSENQFSLRVNSVTAADTAVYHCVRWQRLENYFDSWGQGTLVTVSS
VL: DIQMTQPPSVSGDPGQRVTISCTGSTSNIGTYYVSWYRQVPGTVPKLLIYENNKRPSGVSDRFSGSKSGTSASLTITGLQPGDEADYYCLAWDDGLSAGLFGGGTKVEIK

- fold decrease of CD62P+CD45+/总CD45+细胞 at 10μg/mL: 2 倍
B2: 抗体Rh001-6 (antibody, V domains shown)
VH: QVQLLESGPGLVKPSETLSLSCTVSGGSISGYYYWSWIRQPPGKGLEWIGGIYGTSGSAYYNPSLKSRVTISKDTSKNQFSLKLSSVTAADTAVYYCTRHASGGANTDLWGQGTLVTVSS
VL: DIQMTQSPLSLPVTPGQPASISCRSSQSLVHSDGKTYLNWLQQKPGQPPRRLIYQVSNRDSGVPDRFSGSGAGTDFTLKISRVEAEDVGVYYCGQGTNVPFTFGPGTKVEIK
